# Laboratory results reported in the nanobody polyreactivity screen of Harvey et al. (2022).
# Experiment: yeast display, Sf9 membrane polyspecificity reagent, FACS + sequencing; frameworks hold sequencing errors
# Outline: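 Genes from sorted yeast were amplified by colony PCR, read by MiSeq 2 × 250 sequencing and filtered on CDR length. These cells carried a synthetic nanobody library in Saccharomyces cerevisiae BJ5465 and were sorted by FACS into low and high (top ~1%) gates on anti-HA and streptavidin fluorescence. Polyreactivity is labelled according to the gate of origin.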
row,Sequence,polyreactivity (PSR sort gate)
1,QVQLVESGGGLVQAGGSLRLSCAASGRIFYPYAMGWYRPAPGKERELVAAITVRGGRTYYADSVKWRFTISRDNAKNTVYLQMNSLKPEDTAVYYCNAVIGWYIGSRTYPHGPLQYDYWGQGTQVTLSS,high polyreactivity
2,QVQLVESGGGLVQAGGSLRLSCAASGRIFYPYAMGWYRQAPGKEREFVAAISYRGTSTFYADSVKGRFTISRDNAKNTVYLQMNSLKPEDTAVYYCAARVLWYGRATAAVTPYDYWGQGTQVTVSS,high polyreactivity
3,QVQLVESGGGLVQAGGSLRLSCAASGRIFYPYAMGWYRQAPGKERELVAAIDWTAGGTYYADSVKGRFTISRDNAKNTVYLQMNSLKPEDTAVYYCAAEYYIEANGDYWGLGTQVTVSS,low polyreactivity
4,QVQLVESGGGLVQAGGSLRLSCAASGRIFYPYAMGWYRQAPGKERELVAAIRISGGSTYYADSVKGRFTISRDNAKNTVYLQMISLNPEDTAVYYCNASARLQPAYSWFYYWGQGTQVTVSS,high polyreactivity
5,QVQLVESGGGLVQAGGSLRLSCAASGRIFYPYAMGWYRQAPGKERELVAAISYSGGSTFYADSVKGRFTISRDNAKNTVYLQMNSLKPEDTAVYYCIKPGLYIYGSWGQGTQVTVSS,high polyreactivity
6,QVQLVESGGGLVQAGGSLRLSCAASGRIFYPYAMGWYRQAPGKERELVASITSGGGTYYADSVKGRFTISRDNAKNSVYLQMNSLKPEDTAVYYCAAKYYTSWIRYDYWGQGTQVTVSS,low polyreactivity
7,QVQLVESGGGLVQAGGSLRLSCAASGRIFYPYAMGWYRQPPGKERELVAAIDKGGGSTYYADSVKGRFTISRDNAKNTVYLQMNSLKPEDTAVYYCAAGWEYPYDYWGQGTQVTVSS,low polyreactivity
8,QVQLVESGGGLVQAGGSLRLSCAASGRIFYQNTMGWYRQAPGKEREFVARINWSGGSTYYADSVKGRFTISRDNAKITVYLQMNSLKPEDTAVYYWAKASQSWGRDDYYYWGQGTQVTVSS,low polyreactivity
9,QVQLVESGGGLVQAGGSLRLSCAASGRIFYQNTMGWYRQAPGKERELVASISTTGGNTYYADSVKGRFTISRDNAKNTVYLQMNSLKPEDTAVYYCNAVRSVYLYGYIYGVDYWGQGTQVTVSS,low polyreactivity
10,QVQLVESGGGLVQAGGSLRLSCAASGRIFYRNAMGGSRQAPGKERELVAAISYSGGSTYYADSVKGRFTISRDNAKNTVYLQMNSLKPEDTAVYYCAAARDRWGNYWGQGTQVTVSS,high polyreactivity
11,QVQLVESGGGLVQAGGSLRLSCAASGRIFYRNAMGWYRQAPGKERELVAAINWSGGSTYYADSVKGRFTISRDNAKNTVYLQMNSLKPEDTAVYYCATGYRQGEYDYWGQGTQVTVSS,low polyreactivity
12,QVQLVESGGGLVQAGGSLRLSCAASGRIFYRNAMGWYRQAPGKERELVAAISSGGITNYADSVKGRFTISRDNAKNTVYLQMNSLKPEDTAVYYCNADAYRLPGYTFGYWGQGTQVTVSS,high polyreactivity
13,QVQLVESGGGLVQAGGSLRLSCAASGRIFYRNAMGWYRQAPGTDRELVARITSSGGTTYYADSVKGRFTISRDNAKNTVYLQMNSLQPEDTAVYYCAARSVTQRKMYYWGQGTQVTVSS,high polyreactivity
14,QVQLVESGGGLVQAGGSLRLSCAASGRIFYRYAMGCYRQAPGKERELVAGIRSRGGRTYYADSVKGRFTISRDNAKNTVYLQMNSLKPEDTAVYYCAARYLSGTSRYYYWGQGTQVTVSS,high polyreactivity
15,QVQLVESGGGLVQAGGSLRLSCAASGRIFYRYAMGWSRQAPGKERELVASITTSGDSTYYADSVKGRFTISRDNAKNTVYLQMNSLKPEDTAVYYCAARSYRGRRYDYWGQGTQVTVSS,high polyreactivity
16,QVQLVESGGGLVQAGGSLRLSCAASGRIFYRYAMGWYRQAPGKEMELVASITRSGITHYADSVKGRFTISRDNAKNTVYLQKNSLKPEDTEVYYCNARRGSPAPYDYWGQGTQVTVSS,high polyreactivity
17,QVQLVESGGGLVQAGGSLRLSCAASGRIFYRYAMGWYRQAPGKERELVAGISNSGGSTYYADSVKGRFTISRDNAKNSVYLQRNSLKPEDTAVYYCARLSTKPLPYDYWGQGTQVTVSS,high polyreactivity
18,QVQLVESGGGLVQAGGSLRLSCAASGRIFYRYAMGWYRQAPGKERELVASIRFSDGSTYYADSVKGRFTISRDNAKNTVYLQMNSLKPEDTALYYCAARPLRSRNGYYWGQGTQVTVSS,high polyreactivity
19,QVQLVESGGGLVQAGGSLRLSCAASGRIFYRYAMGWYSQAPGKESELVAAITWRGGSTSYPDSVKGRFTISRDNAKNTVYLQMNSLKPEATAVYYCAAAAYGVPWRSYLGVFKSHMDYWGQGTQVTVSS,high polyreactivity
20,QVQLVESGGGLVQAGGSLRLSCAASGRIFYRYARGWYRQAPGKEREFVAAITSGTSTNYADSVKGRFTISRDNAKNSLYVQRNSLKPEDTAVYYCATRYYWKYAEYDYWGQGTQVTVSS,high polyreactivity

row,Sequence,polyreactivity (PSR sort gate)
1,QVQLVESGGGLVQAGGSLRLSCAASGRIFYRYDMGWYRQAPGKERELVAAISSGGNTNYADSVKGRFTISRDNAKNTVYLQMNCLKPEDTAVYYCAKRYRSYQGSSRQGNYGYWGQGTQVSVSS,high polyreactivity
2,QVQLVESGGGLVQAGGSLRLSCAASGRIFYSNAMGWYRQAPGKERELVAAISGSTDSTYYADSVKGRFTISRDNAKNTDYLQMNSVKPEDTAVYYCAAADYWFYYGYYLTMDFWGQGTQVTVSS,low polyreactivity
3,QVQLVESGGGLVQAGGSLRLSCAASGRIFYSNAMGWYRQAPGKERELVAAITTSGASTYYADSVKGRFTISRDNAKNTVYLQMNSLKPEDTSVYYCATYAVVYPFAMDYWGQGTQVTVSS,low polyreactivity
4,QVQLVESGGGLVQAGGSLRLSCAASGRIFYSNTMGWNRQAPGKEREMVATITSGGSTNYADSVKGRFTISRDNAKNTVYFQMNILKPEDTAVYYCAADAYATHPFRSESDYWGQGTQVTVSS,low polyreactivity
5,QVQLVESGGGLVQAGGSLRLSCAASGRIFYSYAMGCSRQAPGKERELVAAITRGGRTKYADSVKGRFTISRDNEKNTVYLQMNSLKPEDTAVYYCAAVKFYTEYNQYDYWGQGTQVTVSS,high polyreactivity
6,QVQLVESGGGLVQAGGSLRLSCAASGRIFYSYAMGWNRQAPGKESQLVARSTRGSSTYYADSVKGRLTISRDNAKKTFYVQMNSMKPEDTAVYYCAQSRYTALTNHWSHDYWGPGTQVTVSS,low polyreactivity
7,QVQLVESGGGLVQAGGSLRLSCAASGRIFYSYAMGWYRQAPGKDRELVAAITRTGGNTYYADSVKGRFTISRDNAKNTVYLQMNSLKPEDTAVYYCNAEYWKEHYPEIYYSWGQGTQVTVSS,low polyreactivity
8,QVQLVESGGGLVQAGGSLRLSCAASGRIFYSYAMGWYRQAPGKEREFVAVISSDGGSTYYADSVKGRFTISRDNAKNTVYLQMNSLKPEDTAVYYCNAEIDYDVYEYDYWGQGTQVTVSS,low polyreactivity
9,QVQLVESGGGLVQAGGSLRLSCAASGRIFYSYAMGWYRQAPGKERELVAAISSRTGSTYYADSVKGRFTISRDNAKNTVYLQMNSLKPEDTAVYYCAAQSGWLRYYYWGQGTLVTVSS,high polyreactivity
10,QVQLVESGGGLVQAGGSLRLSCAASGRIFYSYAMGWYRQAPGKERELVAAITRSVARTYYADSVKGRFTISRDNAKNTVYLQMNCLKPEDTAVYYCAADWYQWGGRYYAPRYYYWGQGTQVTVSS,high polyreactivity
11,QVQLVESGGGLVQAGGSLRLSCAASGRIFYTNAMGWYRKAPGKERELVAGITCSGDSTYYADSVKGRFTISRDNAKNTVYLQMNSLKPEDTPVYYCAARWRYVLMDYWGQGNQVTVSS,low polyreactivity
12,QVQLVESGGGLVQAGGSLRLSCAASGRIFYTNAMGWYRQAPGKERELVATISGSGGNTYYADSVKGRFTISRDNAKNTVYLQMNSLKPEDTAVYYCAKAYYTPYGVYVLHYYWGQGTQVTVSS,high polyreactivity
13,QVQLVESGGGLVQAGGSLRLSCAASGRIFYTNAMGWYRQAPGKESELVAVISWGGDTTYYADSVKGRFTISRDNAKYTVYLQMNSLKPDDTADYYFNADWGPTYEIYDSWGQGTQVTVSS,low polyreactivity
14,QVQLVESGGGLVQAGGSLRLSCAASGRIFYTNGMGWYRQAPGKERELVAAISYNGGRTYYADSVKGRFTISRDNAKNTVYLQMNSLKPEDTAVYYCNKRGDYQFHFDYWGQGTQVTVSA,low polyreactivity
15,QVQLVESGGGLVQAGGSLRLSCAASGRIFYTNVMGWYRQATGKERELVAAISTGGGRTYYADSVKGRITISRDNAKNSVYLQMNSLKPEDTAVYDCAASGRYAIVWGDQYYGYYYWGQGTQVTVSS,high polyreactivity
16,QVQLVESGGGLVQAGGSLRLSCAASGRIFYTYAMGWYRQAPGKERELVAAIRWSSGSTFYADSVKGRFTISRDNAKNSVYLQMNSLKPEDTAVYYCATEYYPQYQSTGWYDYWGQGTQVTVSS,low polyreactivity
17,QVQLVESGGGLVQAGGSLRLSCAASGRIFYTYAMGWYRQSPGKERELVAAISWGGGRTYYADSVKGRFTISRDNAKNTVYLQMNSLKPEDTAVYYCNAVSLKFTRKYDYWGQGTQVTVSS,high polyreactivity
18,QVQLVESGGGLVQAGGSLRLSCAASGRIFYTYVMGWYRQAPGKERELVAAITRRGGSTNYADSVKGRFTISRDNAKNTVYLQMNSLKPEDTAVYYCAAGTYKGSSVYGMDYWGQGTQVTVSS,high polyreactivity
19,QVQLVESGGGLVQAGGSLRLSCAASGRIFYVYAMGWYRAPGKERELVASISYIGGSTYYADSVKGRFTISRDNAKNTVYLQMNSLIPEDTAVYYCATDYYGYTVSFLVASWPDDYWGQGTQVTVSS,low polyreactivity
20,QVQLVESGGGLVQAGGSLRLSCAASGRIFYVYAMGWYRPAPGKERELVAAITQSGGRTYYADSVKGRFTISRDNAKNTVYLQMNSLKPEDTAVYYCNADGDDLDWNYYLVQYDYWGQGTQVTVSS,low polyreactivity
